Test results reported in doi:10.1101/519959.

Target: T1, DBINO domain of dIno80 (Drosophila melanogaster, UniProt Q9VDY1 228-484)
T1 sequence: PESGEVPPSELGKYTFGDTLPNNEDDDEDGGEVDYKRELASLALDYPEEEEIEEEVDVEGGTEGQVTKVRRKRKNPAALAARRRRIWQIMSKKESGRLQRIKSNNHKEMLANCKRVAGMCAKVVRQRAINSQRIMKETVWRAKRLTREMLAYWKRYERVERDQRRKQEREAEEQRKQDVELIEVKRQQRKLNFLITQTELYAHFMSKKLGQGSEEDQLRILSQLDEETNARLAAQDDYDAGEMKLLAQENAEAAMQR
Experiment: fluorescent intercalator displacement

B1: Hs.con (3 copies of Ino80 motif, 33-mer) (dsDNA)
DNA 1: CCCCGTCAGCCCCCCGTCAGCCCCCCGTCAGCC
DNA 2: GGCTGACGGGGGGCTGACGGGGGGCTGACGGGG
In the case of B1, the Kd is reported as 10 µM.
